From publication PMC12552968, “The RING-finger domain of Arabidopsis RMR functions as an E3 ligase essential for post-Golgi trafficking” (The Journal of Biological Chemistry, 2025)

Target: T1, Arabidopsis E2 ubiquitin-conjugating enzyme AtUbc30 (Arabidopsis, UniProt Q9FKT3 1-148)
T1 construct: AtUbc30, Arabidopsis E2 ubiquitin-conjugating enzyme, At5g56150; source: E. coli SoluBL21, purified (GSTrap Sepharose, PreScission cleavage, gel filtration)
Assay: pull-down; AtUbc30 (50 to 60 μM) with equimolar GST, wildtype or I234Y GST-AtRMR1-RING in the presence of GSTrap Sepharose; 30 mM Tris pH 7.5, 150 mM NaCl, 2 mM DTT; 4 h at 4 °C; eluted with 20 mM reduced glutathione; 15% SDS-PAGE, Coomassie blue
Details: both partners purified

T1 sequence (Q9FKT3 whole entry): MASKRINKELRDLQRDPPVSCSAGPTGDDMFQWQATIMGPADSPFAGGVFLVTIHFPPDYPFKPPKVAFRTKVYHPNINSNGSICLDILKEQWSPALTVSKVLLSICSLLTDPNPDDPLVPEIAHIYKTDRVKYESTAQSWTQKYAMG

B1: GST-tagged RING-H2 domain of Arabidopsis RMR isoform-1 (GST-AtRMR1-RING), wildtype (domain or fragment, UniProt Q9M622 206-283, looked up)
chain: RLDAKLVHTLPCFTFTDSAHHKAGETCAICLEDYRFGESLRLLPCQHAFHLNCIDSWLTKWGTSCPVCKHDIRTETMS
notes: AtRMR1 (receptor-homology-transmembrane-RING-H2 protein 1), Arabidopsis, At5g66160, RING-H2 domain, residues 206-283; The methods tell only the purification of the form with the GST tag cleaved; also called E3; source: E. coli SoluBL21 (pGEX-6p-1), recombinant
Question: Does B1 bind?
Answer: binds
